Results from PMC7564666 (2020).

B1: GST-LASP1 (full length LIM and SH3 Protein 1, residues 1–261) [human] / argonaute 2 (Ago2), endogenous [human (endogenous in MDA-MB-231 variants 231S and Bone-Un)] (parent complex)
chain 1: MNPNCARCGKIVYPTEKVNCLDKFWHKACFHCETCKMTLNMKNYKGYEKKPYCNAHYPKQSFTMVADTPENLRLKQQSELQSQVRYKEEFEKNKGKGFSVVADTPELQRIKKTQDQISNIKYHEEFEKSRMGPSGGEGMEPERRDSQDGSSYRRPLEQQQPHHIPTSAPVYQQPQQQPVAQSYGGYKEPAAPVSIQRSAPGGGGKRYRAVYDYSAADEDEVSFQDGDTIVNVQQIDDGWMYGTVERTGDTGMLPANYVEAI
chain 2: not shown

Variants of: B1
Assay: GST pull-down, immunoblot; 1 mg of Bone-Un LASP1-KO total lysate; 1.5 nmol of each of the double-mutants; parent: 1

| ratio to parent | Variant |
| --- | --- |
| 1.82 | chain 1 S146A, chain 1 Y171D |
| 1.29 | chain 1 S146A, chain 1 Y171F |
| 0.9 | chain 1 S146D, chain 1 Y171D |

Variants of: B1
Assay: GST pull-down with purified proteins (direct binding), immunoblot; 100 ng of purified recombinant Ago2; 1.5 nmol of purified LASP1 double mutants; low exposure blot; parent: 1

| ratio to parent | Variant |
| --- | --- |
| 3.98 | chain 1 S146A, chain 1 Y171D |
| 1.6 | chain 1 S146A, chain 1 Y171F |

Variants of: B1
Assay: GST pull-down, immunoblot; 1 mg of Bone-Un LASP1 KO total lysate; 1.5 nmol of each LASP1 single-mutant protein; parent: 1

| Variant | ratio to parent |
| --- | --- |
| chain 1 S146A | 4.79 |
| chain 1 S146D | 3.23 |

Next, values leading:

| ratio to parent | Variant |
| --- | --- |
| 5 | chain 1 Y171D |
| 0.27 | chain 1 Y171F |

Variants of: B1
Assay: GST pull-down with purified proteins (direct binding), immunoblot; 100 ng of purified recombinant Ago2; 1.5 nmol of each purified single-mutant protein; high exposure blot; parent: 1

| ratio to parent | Variant |
| --- | --- |
| 0.39 | chain 1 S146D |
| 0.61 | chain 1 Y171D |
| 0.08 | chain 1 Y171F |

Variants of: B1
Assay: GST pull-down with purified proteins (direct binding), immunoblot; 100 ng of purified recombinant Ago2; 1.5 nmol of purified LASP1 double mutants; high exposure blot; parent: 1

| ratio to parent | Variant |
| --- | --- |
| 0.58 | chain 1 S146D, chain 1 Y171D |
| 0.34 | chain 1 S146D, chain 1 Y171F |
